Assay results published in patent US20090197263, “Compare-MS: Method Rapid, Sensitive and Accurate Detection of DNA Methylation” (published 2009).

Legend:
[1] = target: T1, MBD2-MBD (methyl-binding domain of MBD2) (Homo sapiens, UniProt Q9UBB5 Q9UBB5:145-213); assay: FP; 10 nM hairpin; 50 mM NaCl, 1 mM MgCl2, 10 mM Tris pH 7.4, room temp; text gives 2 or 3 sites as 156 and 222 nM respectively but cites FIGS. 2A (three pairs) and; conditions: tags: C-terminal 6xHis (pFBC6H baculovirus vector, Sf9), label: 5'-6FAM
T1 sequence (Q9UBB5 145-213, one chain of several): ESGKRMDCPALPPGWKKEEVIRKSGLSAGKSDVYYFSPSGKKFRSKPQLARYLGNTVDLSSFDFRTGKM
Protocol: (§1) 10 nM of annealed, fluorescently-labeled hairpin oligonucleotides with the sequence 5′-6FAM-[…]-3′ (SEQ ID NO:4) with no methylated CpGs (unmethylated hairpin), 2 methylated CpGs at the 2nd and 5th CpGs from the 5′ end (1 symmetrically methylated CpG hairpin), 3 methylated CpGs toward the 3′ end (3 asymmetrically methylated CpG hairpin), 4 methylated CpGs at the 1st, 2nd, 5th, and 6th CpGs from the 5′ end (2 symmetrically methylated CpG hairpin), or 6 methylated CpGs (3 symmetrically methylated CpG hairpin) were incubated with various concentrations of recombinant MBD2-MBD in a 50 μL reaction volume containing 4% glycerol, 1 mM MgCl₂, 0.5 mM EDTA, 0.5 mM DTT, 50 mM NaCl, 10 mM Tris-HCl (pH 7.4), 0.2% Tween-20 for 1 hour at room temperature with gentle shaking. Fluorescence polarization measurements were taken in triplicate using a Beckman Coulter DTX 880 Multimode Detector as described previously (Lee et al., (2005), supra). Briefly, fluorescence anisotropies (r) were calculated as
(§2) 6His-tagged methyl-binding domain of human MBD2 (MBD2-MBD) was expressed in Sf9 insect cells using a baculoviral expression system and purified using Ni-NTA Superflow beads (Qiagen, Valencia, Calif.). The affinities of MBD2-MBD for fluorescently labeled hairpin oligonucleotides containing various configurations of CpG methylation were then determined by fluorescence polarization (FIG. 2). […]

[2] = target: T1, MBD2-MBD (methyl-binding domain of MBD2); assay: FP; 10 nM hairpin; 50 mM NaCl, 1 mM MgCl2, 10 mM Tris pH 7.4, room temp; conditions: tags: C-terminal 6xHis (pFBC6H baculovirus vector, Sf9), label: 5'-6FAM
Protocol: as §1, §2

Binder | EC50 [1] | EC50 [2]
ATCGTCGTACGTTTTCGTACGACGAT (structured_DNA, 5mC at 1st, 2nd, 5th and 6th CpGs from 5' end (C3, C6, C20, C23)) [2 symmetrically methylated CpG hairpin] | 156 nM | –
ATCGTCGTACGTTTTCGTACGACGAT (structured_DNA, 5mC at 2nd and 5th CpGs from 5' end (C6, C20)) [1 symmetrically methylated CpG hairpin] | – | 519 nM
